Assay results reported in patent US20260242478A1 (published 2026).
Read-outs that look alike come from different tables or passages of the source. Where no end group is shown, it is not given here.

T1: Peptide-179 (cysteine pairing not given here; also: biotinylated (site not given here))
T1 construct: PSMA peptide mask (P2)
T1 peptide: LMKWCTPRWMCAAE

T2: Peptide-180 (cysteine pairing not given here; also: biotinylated (site not given here))
T2 construct: PSMA peptide mask (P2)
T2 peptide: IAVLCQPNWMCAGF

T3: Peptide-181 (cysteine pairing not given here; also: biotinylated (site not given here))
T3 construct: PSMA peptide mask (P2)
T3 peptide: PELRCVPFWMCSFN

T4: Peptide-205 (cysteine pairing not given here; also: biotinylated (site not given here))
T4 construct: PSMA peptide mask (P2)
T4 peptide: MCQWDKINYWMDCD

T5: Peptide-202 (cysteine pairing not given here; also: biotinylated (site not given here))
T5 construct: PSMA peptide mask (P2)
T5 peptide: MCQWDELNYWMDCD

T6: Peptide-204 (cysteine pairing not given here; also: biotinylated (site not given here))
T6 construct: PSMA peptide mask (P2)
T6 peptide: QCTWNEKTWWMECE

T7: Peptide-194 (cysteine pairing not given here; also: biotinylated (site not given here))
T7 construct: PSMA peptide mask (P2)
T7 peptide: SKLLCVPPWMCYHV


Experiments:
[1] = target: Ab-15; assay: BLI (Octet): sensor loaded with 200 nM biotinylated peptide, 100 nM Ab-15;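 on t1/2: binding association and dissociation tracked in real time, fitted to a 1:1 binding model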
[2] = target: Ab-15; assay: binding ELISA: biotinylated peptide on neutravidin plate, Ab-15 titrated
[3] = target: Ab-15; assay: competition ELISA: peptide titrated against 1 nM Ab-15; competitor plate-bound CD28
[4] = target: Ab-15; assay: BLI (Octet): sensor loaded with 200 nM biotinylated peptide, 100 nM Ab-15; remark: listed apart in the source;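 on t1/2: binding association and dissociation tracked in real time, fitted to a 1:1 binding model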
[5] = target: Ab-15; assay: competition ELISA: peptide titrated against 1 nM Ab-15; competitor plate-bound CD28; remark: listed apart in the source
[6] = target: Ab-15; assay: binding ELISA: biotinylated peptide on neutravidin plate, Ab-15 titrated; remark: listed apart in the source
[7] = target: Ab-15; assay: BLI (Octet): biotinylated peptide on sensor, Ab-15 titrated, 1:1 model
[8] = target: Ab-15; assay: BLI (Octet): sensor loaded with 20 nM biotinylated peptide, 100 nM Ab-15
[9] = target: T1, Peptide-179; assay: ELISA, biotinylated peptide captured on neutravidin, PSMA Fab titrated
[10] = target: T2, Peptide-180; assay: as above
[11] = target: T1, Peptide-179; assay: as above
[12] = target: T3, Peptide-181; assay: as above
[13] = target: T4, Peptide-205; assay: BLI (Octet), biotinylated peptide on streptavidin sensor, PSMA Fab titrated, 1:1 model
[14] = target: T2, Peptide-180; assay: as above
[15] = target: T1, Peptide-179; assay: as above
[16] = target: T5, Peptide-202; assay: as above
[17] = target: T6, Peptide-204; assay: as above
[18] = target: T7, Peptide-194; assay: as above

| Octet signal (200 nM peptide) [1] | EC50 [2] | IC50 [3] | Octet signal [4] | t1/2 [4] | IC50 [5] | EC50 [6] | Kd [7] | t1/2 [7] | Octet signal (20 nM peptide) [8] | EC50 [9] | EC50 [10] | EC50 [11] | EC50 [12] | Off rate t1/2 [13] | Off rate t1/2 [14] | Off rate t1/2 [15] | Off rate t1/2 [16] | Off rate t1/2 [17] | Off rate t1/2 [18] | Binder |
| --- | --- | --- | --- | --- | --- | --- | --- | --- | --- | --- | --- | --- | --- | --- | --- | --- | --- | --- | --- | --- |
| 1.8 | 0.001 µM | 0.06 µM | 2.03 | 9.8 min | 0.2 µM | 0.004 µM | 0.0151 µM | 15.5 min | 0.509 |  |  |  |  |  |  |  |  |  |  | MDWCPRDLWVHCFA (cysteine pairing not given here; also: biotinylated, site not given here, CD28 peptide mask) [Peptide-41] |
|  |  |  |  |  |  |  |  |  |  | 0.12 µM | 0.033 µM | 0.0059 µM | 0.003 µM | < 1 min | 0.75 min | 1.09 min | < 1 min | < 1 min | < 1 min | PSMA Fab (SEQ ID NOs: 19, 20) (Fab, V domains shown, also called 006 PSMA Fab; anti-PSMA Fab) VH: QVQLVESGGGVVQPGRSLRLSCAASGFAFSRYGMHWVRQAPGKGLEWVAVIWYDGSNKYYADSVKGRFTISRDNSKNTQYLQMNSLRAEDTAVYYCARGGDFLYYYYYGMDVWGQGTTVTVSS VL: DIQMTQSPSSLSASVGDRVTITCRASQGISNYLAWYQQKTGKVPKFLIYEASTLQSGVPSRFSGGGSGTDFTLTISSLQPEDVATYYCQNYNSAPFTFGPGTKVDIKR |
